Test results reported in the supplement of paper PMC9112550, “Optimization of the antimicrobial peptide Bac7 by deep mutational scanning” (BMC Biology, 2022).

Tested on: Escherichia coli TOP10
Test: shrunken log2 fold change of peptide-encoding DNA abundance (4.5 h post-induction vs induction); higher = less antimicrobial activity (less host growth inhibition)
Settings: time post-induction: 4.5 h; library: site-saturation at positions 5, 18, 19, 20
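Also: peptides expressed intracellularly from a pBAD plasmid library in pooled LB shake-flask culture, induced with 0.3% L-arabinose, DNA abundance read by NGS, three biological replicates, DESeq2 with apeglm shrinkage.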

| Sequence | shrunken log2 fold change |
| --- | --- |
| RRIRMRPPRLPRPRPRPNVVPRP | -0.0912 |
| RRIRPRPPRLPRPRPRPDWRPRP | 0.321 |
| RRIRVRPPRLPRPRPRPEAEPRP | 0.807 |
| RRIRRRPPRLPRPRPRPSQKPRP | -0.00949 |
| RRIRLRPPRLPRPRPRPSNMPRP | -0.406 |
| RRIRDRPPRLPRPRPRPGCKPRP | 0.0398 |
| RRIRSRPPRLPRPRPRPFPHPRP | -0.16 |
| RRIRYRPPRLPRPRPRPPMTPRP | -0.456 |
| RRIRKRPPRLPRPRPRPDHDPRP | 0.0562 |
| RRIRSRPPRLPRPRPRPERVPRP | 0.21 |
| RRIRFRPPRLPRPRPRPWYCPRP | -0.706 |
| RRIRDRPPRLPRPRPRPTFQPRP | 0.0497 |
| RRIRIRPPRLPRPRPRPMWNPRP | -0.472 |
| RRIRCRPPRLPRPRPRPQISPRP | -0.785 |
| RRIRVRPPRLPRPRPRPWHPPRP | -0.0956 |
| RRIRMRPPRLPRPRPRPWRTPRP | 0.324 |
| RRIRGRPPRLPRPRPRPSSHPRP | -0.0172 |
| RRIRQRPPRLPRPRPRPANNPRP | -0.27 |
| RRIRIRPPRLPRPRPRPLGMPRP | -0.268 |
| RRIRRRPPRLPRPRPRPWTIPRP | -0.189 |
| RRIRNRPPRLPRPRPRPNASPRP | 0.374 |
| RRIRWRPPRLPRPRPRPCNAPRP | -0.0905 |

| Sequence | shrunken log2 fold change |
| --- | --- |
| RRIRNRPPRLPRPRPRPVTLPRP | -0.3 |
| RRIRGRPPRLPRPRPRPCSAPRP | 1.58 |
| RRIRPRPPRLPRPRPRPQLVPRP | 0.0126 |
| RRIRKRPPRLPRPRPRPHCDPRP | 0.266 |
| RRIRDRPPRLPRPRPRPSHNPRP | -0.314 |
| RRIRGRPPRLPRPRPRPVGHPRP | 0.453 |
| RRIRPRPPRLPRPRPRPMVKPRP | -0.154 |
| RRIRQRPPRLPRPRPRPQCIPRP | -0.0582 |
| RRIRARPPRLPRPRPRPHLPPRP | 0.0943 |
| RRIRIRPPRLPRPRPRPDRWPRP | 0.0549 |
| RRIRHRPPRLPRPRPRPCQKPRP | -0.0102 |
| RRIRARPPRLPRPRPRPPLEPRP | 0.583 |
| RRIRTRPPRLPRPRPRPCCGPRP | 0.635 |
| RRIRCRPPRLPRPRPRPHYCPRP | -0.342 |
| RRIRNRPPRLPRPRPRPMHKPRP | -0.131 |
| RRIRGRPPRLPRPRPRPISIPRP | 0.199 |
| RRIRPRPPRLPRPRPRPMHCPRP | -0.0698 |
| RRIRVRPPRLPRPRPRPYSRPRP | -0.0134 |
| RRIRFRPPRLPRPRPRPGLHPRP | 0.159 |
| RRIRVRPPRLPRPRPRPDWSPRP | -0.316 |
| RRIRQRPPRLPRPRPRPGPKPRP | -0.0957 |
| RRIRTRPPRLPRPRPRPGPFPRP | 0.102 |

| Sequence | shrunken log2 fold change |
| --- | --- |
| RRIRWRPPRLPRPRPRPREVPRP | 0.477 |
| RRIRVRPPRLPRPRPRPRIHPRP | -0.219 |
| RRIRTRPPRLPRPRPRPNWFPRP | -0.157 |
| RRIRFRPPRLPRPRPRPLADPRP | -0.0773 |
| RRIRDRPPRLPRPRPRPLQKPRP | -0.0982 |
| RRIRVRPPRLPRPRPRPYWAPRP | -0.0239 |
| RRIRLRPPRLPRPRPRPQYEPRP | -0.166 |
| RRIRIRPPRLPRPRPRPKGIPRP | -0.13 |
| RRIRYRPPRLPRPRPRPCCIPRP | -0.129 |
| RRIRARPPRLPRPRPRPGEDPRP | 0.814 |
| RRIRTRPPRLPRPRPRPHFPPRP | -0.199 |
| RRIRHRPPRLPRPRPRPNRFPRP | -0.00088 |
| RRIRGRPPRLPRPRPRPTPMPRP | 0.887 |
| RRIRRRPPRLPRPRPRPIWQPRP | 0.0175 |
| RRIRARPPRLPRPRPRPWMLPRP | -0.306 |
| RRIRLRPPRLPRPRPRPKKTPRP | 0.0684 |
| RRIRSRPPRLPRPRPRPFCTPRP | -0.375 |
| RRIRGRPPRLPRPRPRPYDEPRP | 0.0538 |
| RRIRARPPRLPRPRPRPVAVPRP | 0.445 |
| RRIRDRPPRLPRPRPRPFRDPRP | -0.00232 |
| RRIRWRPPRLPRPRPRPLGWPRP | 2.31 |
| RRIRYRPPRLPRPRPRPAIKPRP | -0.411 |

| Sequence | shrunken log2 fold change |
| --- | --- |
| RRIRFRPPRLPRPRPRPWESPRP | -0.037 |
| RRIRMRPPRLPRPRPRPEYFPRP | -0.109 |
| RRIRPRPPRLPRPRPRPEVTPRP | 0.198 |
| RRIRPRPPRLPRPRPRPCAYPRP | -0.311 |
| RRIRKRPPRLPRPRPRPYTHPRP | -0.376 |
| RRIRVRPPRLPRPRPRPLWFPRP | 0.125 |
| RRIRQRPPRLPRPRPRPNKTPRP | -0.0379 |
| RRIRHRPPRLPRPRPRPWNPPRP | -0.221 |
| RRIRWRPPRLPRPRPRPKFGPRP | 0.206 |
| RRIRSRPPRLPRPRPRPDQPPRP | 0.0272 |
| RRIRRRPPRLPRPRPRPLVRPRP | 0.033 |
| RRIRCRPPRLPRPRPRPKMPPRP | 0.0277 |
| RRIRQRPPRLPRPRPRPIVWPRP | -0.287 |
| RRIRMRPPRLPRPRPRPVLEPRP | 0.426 |
| RRIRSRPPRLPRPRPRPRDHPRP | 0.0497 |
| RRIRPRPPRLPRPRPRPEQKPRP | 0.000209 |
| RRIRTRPPRLPRPRPRPENFPRP | -0.0131 |
| RRIRGRPPRLPRPRPRPCTVPRP | 0.032 |
| RRIRCRPPRLPRPRPRPKRWPRP | 0.627 |
| RRIRPRPPRLPRPRPRPIHQPRP | -0.115 |
| RRIRFRPPRLPRPRPRPAVVPRP | -0.231 |
| RRIRVRPPRLPRPRPRPLMMPRP | -0.331 |

| Sequence | shrunken log2 fold change |
| --- | --- |
| RRIRNRPPRLPRPRPRPKQRPRP | 0.432 |
| RRIRKRPPRLPRPRPRPCQVPRP | -0.00846 |
| RRIRDRPPRLPRPRPRPTFEPRP | 0.527 |
| RRIRARPPRLPRPRPRPWAQPRP | 0.0167 |
| RRIRCRPPRLPRPRPRPGCWPRP | 0.569 |
| RRIRQRPPRLPRPRPRPPFSPRP | -0.0357 |
| RRIRGRPPRLPRPRPRPWRAPRP | 0.311 |
| RRIRPRPPRLPRPRPRPKESPRP | 0.13 |
| RRIRNRPPRLPRPRPRPAPFPRP | -0.299 |
| RRIRMRPPRLPRPRPRPTNSPRP | -0.302 |
| RRIRIRPPRLPRPRPRPYKVPRP | -0.385 |
| RRIRHRPPRLPRPRPRPPECPRP | 0.331 |
| RRIRMRPPRLPRPRPRPDWRPRP | 0.276 |
| RRIRFRPPRLPRPRPRPMINPRP | -0.208 |
| RRIRSRPPRLPRPRPRPCSPPRP | 0.149 |
| RRIRERPPRLPRPRPRPVYEPRP | -0.445 |
| RRIRDRPPRLPRPRPRPTKSPRP | 0.366 |
| RRIRERPPRLPRPRPRPTNSPRP | -0.782 |
| RRIRSRPPRLPRPRPRPCQTPRP | 0.131 |
| RRIRHRPPRLPRPRPRPLYHPRP | -0.198 |
| RRIRIRPPRLPRPRPRPAQDPRP | -0.0552 |
